# Experimental data: doi:10.1101/2021.06.02.446813 (bioRxiv, 2021)
# Columns and labels:
# [1] = biological target: SARS-CoV-2 RBD-SD1 (residues 306-577) (Severe acute respiratory syndrome …, UniProt P0DTC2); assay: BLI
# [2] = biological target: SARS-CoV-2 S1 protein (Sino Biological) (SARS-CoV-2, ancestral (Wuhan-Hu-1) …, UniProt P0DTC2); assay: ELISA
Binder,binding result [1],binding result [2]
"antibody 5317-4 (IgG1) (antibody, V domains shown) VH: QVQLRLWGAGLLKPSETLSLTCAVSGGSFIDYYWTWIRQPPGKGLEWIGEINHFGGSGYNPSLKSRVSISVDTSKNQFSLRLNSVTAADTAIYYCARKPLLHSSVNPGAFDIWGQGTMLTVSS VL: EIVLTQSPGTLSLSPGERAALSCRASQSVAGTYLAWYQQKPGQAPRLLIYGASSRATGIPDRFSGSGSGTDFTLTISRLEPEDFAVYYCQQYATSPRTFGQGTQLEIR",binds,
"antibody 5317-10 (IgG1) (antibody, V domains shown) VH: EVQLVQSGAEVKKPGESLTISCKASGYRFTSNWITWVRQMPGKGLEWMGRIDPDDPYSNSSPSFQGHATLSLDKAINTAYLHWSSLKASDTAMYYCARVNRVGDGPDFWGQGTLVTVSS VL: DIVMTQSPLSLPVTPGEPASISCRSSQSLLFGNGYTYLNWYLQKPGQSPQLLIYLGSNRASGVPDRFSVSGSGTDFTLIISRVEAEDVGVYFCMQALQTPWTFGQGTKVEIK",,binds
